Here are results for one variant from article PMC11702068, “NEK8 promotes the progression of gastric cancer by reprogramming asparagine metabolism” (Molecular Medicine, 2025).

Sequences and labels used below:
B1: Flag-ASNS (wild type) [not stated] / NEK8 (partner in the co-immunoprecipitation with ASNS-WT and ASNS-S349A) [not stated] (parent)
chain 1: MCGIWALFGSDDCLSVQCLSAMKIAHRGPDAFRFENVNGYTNCCFGFHRLAVVDPLFGMQPIRVKKYPYLWLCYNGEIYNHKKMQQHFEFEYQTKVDGEIILHLYDKGGIEQTICMLDGVFAFVLLDTANKKVFLGRDTYGVRPLFKAMTEDGFLAVCSEAKGLVTLKHSATPFLKVEPFLPGHYEVLDLKPNGKVASVEMVKYHHCRDVPLHALYDNVEKLFPGFEIETVKNNLRILFNNAVKKRLMTDRRIGCLLSGGLDSSLVAATLLKQLKEAQVQYPLQTFAIGMEDSPDLLAARKVADHIGSEHYEVLFNSEEGIQALDEVIFSLETYDITTVRASVGMYLISKYIRKNTDSVVIFSGEGSDELTQGYIYFHKAPSPEKAEEESERLLRELYLFDVLRADRTTAAHGLELRVPFLDHRFSSYYLSLPPEMRIPKNGIEKHLLRETFEDSNLIPKEILWRPKEAFSDGITSVKNSWFKILQEYVEHQVDDAMMANAAQKFPFNTPKTKEGYYYRQVFERHYPGRADWLSHYWMPKWINATDPSARTLTHYKSAVKA
chain 2: MEKYERIRVVGRGAFGIVHLCLRKADQKLVIIKQIPVEQMTKEERQAAQNECQVLKLLNHPNVIEYYENFLEDKALMIAMEYAPGGTLAEFIQKRCNSLLEEETILHFFVQILLALHHVHTHLILHRDLKTQNILLDKHRMVVKIGDFGISKILSSKSKAYTVVGTPCYISPELCEGKPYNQKSDIWALGCVLYELASLKRAFEAANLPALVLKIMSGTFAPISDRYSPELRQLVLSLLSLEPAQRPPLSHIMAQPLCIRALLNLHTDVGSVRMRRAEKSVAPSNTGSRTTSVRCRGIPRGPVRPAIPPPLSSVYAWGGGLGTPLRLPMLNTEVVQVAAGRTQKAGVTRSGRLILWEAPPLGAGGGSLLPGAVEQPQPQFISRFLEGQSGVTIKHVACGDFFTACLTDRGIIMTFGSGSNGCLGHGSLTDISQPTIVEALLGYEMVQVACGASHVLALSTERELFAWGRGDSGRLGLGTRESHSCPQQVPMPPGQEAQRVVCGIDSSMILTVPGQALACGSNRFNKLGLDHLSLGEEPVPHQQVEEALSFTLLGSAPLDQEPLLSIDLGTAHSAAVTASGDCYTFGSNQHGQLGTNTRRGSRAPCKVQGLEGIKMAMVACGDAFTVAIGAESEVYSWGKGARGRLGRRDEDAGLPRPVQLDETHPYTVTSVSCCHGNTLLAVRSVTDEPVPP

One experiment covers variants of B1. In words: co-immunoprecipitation (IP: ASNS, IB: NEK8), band intensity quantified. To be noted: parent: 4.9, read off a plot.
For chain 1 MCGIWALFGSDDCLSVQCLSAMKIAHRGPDAFRFENVNGYTNCCFGFHRLAVVDPLFGMQPIRVKKYPYLWLCYNGEIYNHKKMQQHFEFEYQTKVDGEIILHLYDKGGIEQTICMLDGVFAFVLLDTANKKVFLGRDTYGVRPLFKAMTEDGFLAVCSEAKGLVTLKHSATPFLKVEPFLPGHYEVLDLKPNGKVASVEMVKYHHCRDVPLHALYDNVEKLFPGFEIETVKNNLRILFNNAVKKRLMTDRRIGCLLSGGLDSSLVAATLLKQLKEAQVQYPLQTFAIGMEDSPDLLAARKVADHIGSEHYEVLFNSEEGIQALDEVIFSLETYDITTVRASVGMYLIAKYIRKNTDSVVIFSGEGSDELTQGYIYFHKAPSPEKAEEESERLLRELYLFDVLRADRTTAAHGLELRVPFLDHRFSSYYLSLPPEMRIPKNGIEKHLLRETFEDSNLIPKEILWRPKEAFSDGITSVKNSWFKILQEYVEHQVDDAMMANAAQKFPFNTPKTKEGYYYRQVFERHYPGRADWLSHYWMPKWINATDPSARTLTHYKSAVKA [chain 1 S349A], the response amounted to 3.1.

In the next experiment the parent is B1. Kind of experiment: co-immunoprecipitation (IP: Flag-ASNS, IB: NEK8), band intensity quantified. The note with it: parent: 5.4, read off a plot.
chain 1 MCGIWALFGSDDCLSVQCLSAMKIAHRGPDAFRFENVNGYTNCCFGFHRLAVVDPLFGMQPIRVKKYPYLWLCYNGEIYNHKKMQQHFEFEYQTKVDGEIILHLYDKGGIEQTICMLDGVFAFVLLDTANKKVFLGRDTYGVRPLFKAMTEDGFLAVCSEAKGLVTLKHSATPFLKVEPFLPGHYEVLDLKPNGKVASVEMVKYHHCRDVPLHALYDNVEKLFPGFEIETVKNNLRILFNNAVKKRLMTDRRIGCLLSGGLDSSLVAATLLKQLKEAQVQYPLQTFAIGMEDSPDLLAARKVADHIGSEHYEVLFNSEEGIQALDEVIFSLETYDITTVRASVGMYLIAKYIRKNTDSVVIFSGEGSDELTQGYIYFHKAPSPEKAEEESERLLRELYLFDVLRADRTTAAHGLELRVPFLDHRFSSYYLSLPPEMRIPKNGIEKHLLRETFEDSNLIPKEILWRPKEAFSDGITSVKNSWFKILQEYVEHQVDDAMMANAAQKFPFNTPKTKEGYYYRQVFERHYPGRADWLSHYWMPKWINATDPSARTLTHYKSAVKA [chain 1 S349A]: the response was determined as 2.7.
